The target of series [1] is T1, MEF2 MADS plus MEF2 domain (amino acids 1-90) (Drosophila, UniProt P40791 1-90).
T1 sequence (looked up): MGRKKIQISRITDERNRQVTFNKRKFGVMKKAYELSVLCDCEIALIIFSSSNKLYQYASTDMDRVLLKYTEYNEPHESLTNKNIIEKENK
As to the kind of experiment: pull-down.

Series [2] addresses T2, MEF2 (UniProt P40791 1-540).
T2 sequence: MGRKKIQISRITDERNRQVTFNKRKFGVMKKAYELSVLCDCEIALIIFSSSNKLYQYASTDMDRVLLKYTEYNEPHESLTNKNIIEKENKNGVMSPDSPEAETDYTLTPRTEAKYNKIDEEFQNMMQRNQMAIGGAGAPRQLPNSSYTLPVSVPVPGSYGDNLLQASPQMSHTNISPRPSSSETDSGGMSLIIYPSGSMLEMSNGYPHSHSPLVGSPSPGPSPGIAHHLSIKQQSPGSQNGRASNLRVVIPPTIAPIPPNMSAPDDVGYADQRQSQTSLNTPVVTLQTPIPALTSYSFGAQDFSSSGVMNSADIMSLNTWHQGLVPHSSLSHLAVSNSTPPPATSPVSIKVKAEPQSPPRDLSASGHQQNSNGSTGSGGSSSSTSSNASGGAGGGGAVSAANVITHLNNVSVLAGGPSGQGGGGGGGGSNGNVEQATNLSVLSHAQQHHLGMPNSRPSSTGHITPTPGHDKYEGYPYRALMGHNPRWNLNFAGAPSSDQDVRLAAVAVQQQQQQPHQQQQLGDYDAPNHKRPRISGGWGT
As to the kind of experiment: competition.

This is an account of results in doi:10.1101/2023.06.28.546941 (bioRxiv, 2023).

B1: MBP-fused Tin homeodomain (amino acids 301-360) (domain or fragment, Drosophila, UniProt P22711 301-360, looked up)
chain: KRKPRVLFSQAQVLELECRFRLKKYLTGAEREIIAQKLNLSATQVKIWFQNRRYKSKRGD
Regarding B1, the binding result in series [1] was “binds”.

B2: M1+T1 M1mut (dsDNA)
DNA 1: GGTGTCGTCTGTTGAAGTGTGAACATTAATGCCTAGATCTAAAGCGATAAAA
DNA 2: GGTTTTATCGCTTTAGATCTAGGCATTAATGTTCACACTTCAACAGACGACA
As for B2, in series [2], the binding result is listed as “no binding”.
